Patent publication US20250276070A1

Target: hFcRn/β2-microglobulin complex (human) (UniProt P55899)
Assay: BLI, His-tagged hFcRn/b2m on Ni-NTA, pH 5.6

fold higher affinity than the IgG1 control: > 1000 fold
Substance: T-01 MB IgG1 I253V
